B1: recombinant murine IL-33 (ligand)
chain: SIQGTSLLTQSPASLSTYNDQSVSFVLENGCYVINVDDSGKDQEQDQVLLRYYESPCPASQSGDGVDGKKLMVNMSPIKDTDIWLHANDKDYSVELQRGDVSPPEQAFFVLHKKSSDFVSFECKNLPGTYIGVKDNQLALVEEKDESCNNIMFKLSKI
modifications: Reduced (active) form with free cysteines. Limits are not given; the usual commercial (BioLegend) mature mouse IL-33, Ser109-Ile266, is assumed, matching the candidate chain 109-266

Key:
[1] = target: T1, H. polygyrus Alarmin Release Inhibitor (HpARI), full-length (Heligmosomoides polygyrus); assay: SPR; HpARI, HpARI_CCP1/2 or HpARI_CCP2/3 captured via the hexa-His tag and covalently stabilised on an NTA chip (400 RU); mIL-33 2.47-200 nM injected, single-cycle kinetics, 25 °C; 10 mM NaH2PO4 pH 7.5, 150 mM NaCl, 50 μM EDTA, 0.05% P20; global fit of a 1:1 model with mass transport; details: both partners purified
T1 construct: It was cloned into the secretion vector pSecTAG2A, so the native signal peptide may be missing and a vector leader used (surmise); also called full-length HpARI; source: Expi293F cells, transfected (pSecTAG2A), purified from supernatant (HisTrap excel, HiTRAP chelating HP Ni column); not shown: His6, C-terminal, kept

recombinant murine IL-33 = target: B1; assay: as above; details: both partners purified

Row | Binder | Kd [1] [nM] | koff [1] [s⁻¹] | Kd (recombinant murine IL-33) [nM] | koff (recombinant murine IL-33) [s⁻¹]
1 | B1 | 1.1 | 0.00015 |  | 
2 | HpARI_CCP2/3 (HpARI truncation lacking CCP1) (domain or fragment) TYDPTPNTPTTVGKDGIWNGVDYRNGSTVKPYCDTGPVINGSSKAVCVSGKWVPTLGVCPKMCSIGSLKENGKFVDVTATTKGDELNPPPREQTLIPIVRKVDKDKVQHGVKVVALCKAEDSTTAAEGVQEFECDNGKWKPEPVPCP |  |  | 1.4 | 
3 | HpARI_CCP1/2 (HpARI truncation lacking CCP3) (domain or fragment) AGQRCRFTDVERDKGYTGMLLKGRLRKTAGNGRTVELICGRGNHNYTCESGVLKESSPRQARCGCKGILEMLFDMPKEERPSPMYDSVTYDPTPNTPTTVGKDGIWNGVDYRNGSTVKPYCDTGPVINGSSKAVCVSGKWVPTLGVCPK |  |  | 9.8 | 0.003

From PMC7338556, “A Truncated Form of HpARI Stabilizes IL-33, Amplifying Responses to the Cytokine” (Frontiers in Immunology, 2020)
